Substrate in the series: O=C(CO)[C@H](O)[C@H](O)COP(=O)(O)O
The experiment in a line: purified protein, by the assay type. More on the design: Recombinant RPIB isomerase kinetics, R5P to Ru5P (direct) or Ru5P to R5P (reverse). The source says: LiRPIB and LmRPIB recombinant proteins, containing a 6-histidine N-terminal tag, were expressed in Escherichia coli and purified by affinity chromatography under native conditions. Coomassie blue is represented in Fig. 1b, showing that both proteins have the predicted MW for the monomer (LiRPIB ~20.83, LmRPIB ~20.78 kDa). […] Additionally, recombinant LiRPIB was used to immunise rabbits to produce polyclonal anti-LiRPIB antibodies. Those antibodies recognise the recombinant protein and a single band in an extract of L. infantum promastigotes with the expected MW (~18.6 kDa, [web.expasy.org/protparam]) (Fig. 1c). […] The reverse reaction, which generates R5P, seems to be favoured, with both enzymes presenting lower Km values and higher vmax and kcat.

Drawing on article PMC4882579, “Disclosing the essentiality of ribose-5-phosphate isomerase B in Trypanosomatids” (Scientific Reports, 2016), this text covers Km, Vmax and kcat for two proteins.

As a reminder, the Km is the substrate concentration at which the rate is half of its maximum. What is called Vmax is the top rate of the reaction or transport when substrate is in excess. The kcat is the number of substrate molecules converted per active site and unit of time at saturation.

B1: LiRPIB (Leishmania infantum) (protein)
chain: MPKRVALGCDHAAYATHQEIMDMVNASGAASKVMYMGPSSDTSVDYPDYAAQVCEAILKGEADTGILVCGTGIGMSIAANKFRGIRAALCYDHVTAQLSRQHNNAHILCIGVRTSGMEVIRDIIETFLTTEPLAEGRHGNRVDKITVIEEEQMKDEQRWCFSGCGGLKEEGK
As for B1, the Michaelis-Menten constant (Km) turned out to be 2820 ± 300 µM, the Vmax worked out at 930 µM/min and the catalytic constant (kcat) came out at 115 ± 3.86 s⁻¹.

B2: LmRPIB (Leishmania major) (protein)
chain: MSKRVALGCDHAAYAAHREIMDMISASGAVSKVMYMGPSSDTSVDYPDYAAQVCEAILKGEADAGILVCGTGIGMSIAANKFRGIRAALCYDHVTAQLSRQHNNAHILCIGVRTSGMEIIRDIITTFLTTEPLAEGRHSNRVDKITVIEEEQMKDEQRCCFSGCGGRKEEGK
As to B2, the Km stood at 3010 ± 540 µM, the maximum rate (Vmax) came to 1040 µM/min and the kcat stood at 128 ± 7.33 s⁻¹.
